B1: parental anti-CD19 clone 8B8, Fab in bacterial supernatant (Fab, V domains shown)
VH: QVQLVQSGAEVKKPGASVKVSCKASGYTFTDYIMHWVRQAPGQGLEWMGYINPYNDGSKYTEKFQGRVTMTSDTSISTAYMELSRLRSDDTAVYYCARGTYYYGSALFDYWGQGTTVTVSS
VL: DIVMTQTPLSLSVTPGQPASISCKSSQSLENPNGNTYLNWYLQKPGQSPQLLIYRVSKRFSGVPDRFSGSGSGTDFTLKISRVEAEDVGVYYCLQLTHVPYTFGQGTKLEIK
notes: conflicting; also called Parental 8B8; parental humanized clone 8B8
B2: anti-CD19 clone 8B8-2B11, Fab in bacterial supernatant (Fab, V domains shown)
VH: QVQLVQSGAEVKKPGASVKVSCKASGYTFTDYIMHWVRQAPGQGLEWMGYINPYNDGSKYTEKFQGRVTMTSDTSISTAYMELSRLRSDDTAVYYCARGTYYYGPQLFDYWGQGTTVTVSS
VL: DIVMTQTPLSLSVTPGQPASISCKSSQSLETSTGTTYLNWYLQKPGQSPQLLIYRVSKRFSGVPDRFSGSGSGTDFTLKISRVEAEDVGVYYCLQLLEDPYTFGQGTKLEIK
B3: anti-CD19 clone 8B8-5D08, Fab in bacterial supernatant (Fab, V domains shown)
VH: QVQLVQSGAEVKKPGASVKVSCKASGYTFTDYIMHWVRQAPGQGLEWMGYINPYNDGSKYTEKFQGRVTMTSDTSISTAYMELSRLRSDDTAVYYCARGTYYYGSELFDYWGQGTTVTVSS
VL: DIVMTQTPLSLSVTPGQPASISCKSSQSLETSTGNTYLNWYLQKPGQSPQLLIYRVSKRFSGVPDRFSGSGSGTDFTLKISRVEAEDVGVYYCLQLTHEPYTFGQGTKLEIK
B4: anti-CD19 clone 8B8-7H07, Fab in bacterial supernatant (Fab, V domains shown)
VH: QVQLVQSGAEVKKPGASVKVSCKASGYTFTDYIMHWVRQAPGQGLEWMGYINPYNDGSKYTEKFQGRVTMTSDTSISTAYMELSRLRSDDTAVYYCARGTYYYGSELFDYWGQGTTVTVSS
VL: DIVMTQTPLSLSVTPGQPASISCKSSQSLETSTGNTYLNWYLQKPGQSPQLLIYRVSKRFSGVPDRFSGSGSGTDFTLKISRVEAEDVGVYYCLQATHIPYTFGQGTKLEIK
B5: anti-CD19 clone 8B8-5H09, Fab in bacterial supernatant (Fab, V domains shown)
VH: QVQLVQSGAEVKKPGASVKVSCKASGYTFTDYIMHWVRQAPGQGLEWMGYINPYNDGSKYTEKFQGRVTMTSDTSISTAYMELSRLRSDDTAVYYCARGTYYYGSALFDYWGQGTTVTVSS
VL: DIVMTQTPLSLSVTPGQPASISCKSSQSLESSTGNTYLNWYLQKPGQSPQLLIYRVSKRFSGVPDRFSGSGSGTDFTLKISRVEAEDVGVYYCLQLIDYPVTFGQGTKLEIK
B6: anti-CD19 clone 8B8-2B03, Fab in bacterial supernatant (Fab, V domains shown)
VH: QVQLVQSGAEVKKPGASVKVSCKASGYTFTDYITHWVRQAPGQGLEWMGYINPYNDGSKYTEKFQGRVTMTSDTSISTAYMELSRLRSDDTAVYYCARGTYYYGPDLFDYWGQGTTVTVSS
VL: DIVMTQTPLSLSVTPGQPASISCKSSQSLETSTGNTYLNWYLQKPGQSPQLLIYRVSKRFSGVPDRFSGSGSGTDFTLKISRVEAEDVGVYYCLQLTHVPYTFGQGTKLEIK
notes: printed VL holds an X
B7: anti-CD19 clone 8B8-5D08 in P329GLALA human IgG1 format (antibody, V domains shown)
VH: QVQLVQSGAEVKKPGASVKVSCKASGYTFTDYIMHWVRQAPGQGLEWMGYINPYNDGSKYTEKFQGRVTMTSDTSISTAYMELSRLRSDDTAVYYCARGTYYYGSELFDYWGQGTTVTVSS
VL: DIVMTQTPLSLSVTPGQPASISCKSSQSLETSTGNTYLNWYLQKPGQSPQLLIYRVSKRFSGVPDRFSGSGSGTDFTLKISRVEAEDVGVYYCLQLTHEPYTFGQGTKLEIKR
B8: anti-CD19 clone 8B8-5B08 in P329GLALA human IgG1 format (antibody, V domains shown)
VH: QVQLVQSGAEVKKPGASVKVSCKASGYTFTDYIMHWVRQAPGQGLEWMGYINPYNDGSKYTEKFQGRVTMTSDTSISTAYMELSRLRSDDTAVYYCARGTYYYGPQLFDYWGQGTTVTVSS
VL: DIVMTQTPLSLSVTPGQPASISCKSSQSLETSTGNTYLNWYLQKPGQSPQLLIYRVSKRFSGVPDRFSGSGSGTDFTLKISRVEAEDVGVYYCLQLDSYPNTFGQGTKLEIKR
B9: anti-CD19 clone 8B8-7H07 in P329GLALA human IgG1 format (antibody, V domains shown)
VH: QVQLVQSGAEVKKPGASVKVSCKASGYTFTDYIMHWVRQAPGQGLEWMGYINPYNDGSKYTEKFQGRVTMTSDTSISTAYMELSRLRSDDTAVYYCARGTYYYGSELFDYWGQGTTVTVSS
VL: DIVMTQTPLSLSVTPGQPASISCKSSQSLETSTGNTYLNWYLQKPGQSPQLLIYRVSKRFSGVPDRFSGSGSGTDFTLKISRVEAEDVGVYYCLQATHIPYTFGQGTKLEIKR
B10: anti-CD19 clone 8B8-5A07 in P329GLALA human IgG1 format (antibody, V domains shown)
VH: QVQLVQSGAEVKKPGASVKVSCKASGYTFTDYIMHWVRQAPGQGLEWMGYINPYNDGSKYTEKFQGRVTMTSDTSISTAYMELSRLRSDDTAVYYCARGTYYYGSALFDYWGQGTTVTVSS
VL: DIVMTQTPLSLSVTPGQPASISCKSSQSLETSTGNTYLNWYLQKPGQSPQLLIYRVSKRFSGVPDRFSGSGSGTDFTLKISRVEAEDVGVYYCLQPGHYPGTFGQGTKLEIKR
B11: anti-CD19 clone 8B8-5H09 in P329GLALA human IgG1 format (antibody, V domains shown)
VH: QVQLVQSGAEVKKPGASVKVSCKASGYTFTDYIMHWVRQAPGQGLEWMGYINPYNDGSKYTEKFQGRVTMTSDTSISTAYMELSRLRSDDTAVYYCARGTYYYGSALFDYWGQGTTVTVSS
VL: DIVMTQTPLSLSVTPGQPASISCKSSQSLESSTGNTYLNWYLQKPGQSPQLLIYRVSKRFSGVPDRFSGSGSGTDFTLKISRVEAEDVGVYYCLQLIDYPVTFGQGTKLEIKR
B12: anti-CD19 clone 8B8-2B03 in P329GLALA human IgG1 format (antibody, V domains shown)
VH: QVQLVQSGAEVKKPGASVKVSCKASGYTFTDYITHWVRQAPGQGLEWMGYINPYNDGSKYTEKFQGRVTMTSDTSISTAYMELSRLRSDDTAVYYCARGTYYYGPDLFDYWGQGTTVTVSS
VL: DIVMTQTPLSLSVTPGQPASISCKSSQSLETSTGNTYLNWYLQKPGQSPQLLIYRVSKRFSGVPDRFSGSGSGTDFTLKISRVEAEDVGVYYCLQLTHVPYTFGQGTKLEIKR
notes: light chain holds an X
B13: anti-CD19 clone 8B8-2B11 in P329GLALA human IgG1 format (antibody, V domains shown)
VH: QVQLVQSGAEVKKPGASVKVSCKASGYTFTDYIMHWVRQAPGQGLEWMGYINPYNDGSKYTEKFQGRVTMTSDTSISTAYMELSRLRSDDTAVYYCARGTYYYGPQLFDYWGQGTTVTVSS
VL: DIVMTQTPLSLSVTPGQPASISCKSSQSLETSTGTTYLNWYLQKPGQSPQLLIYRVSKRFSGVPDRFSGSGSGTDFTLKISRVEAEDVGVYYCLQLLEDPYTFGQGTKLEIKR
B14: anti-CD19 clone 8B8 (parental) in P329GLALA human IgG1 format (antibody, V domains shown)
VH: EVQLQQSGPELVKPGASVKMACKASGYTFTDYIMHWVKQKTGQGLEWIGYINPYNDGSKYTEKFNGKATLTSDKSSITAYMELSSLTSEDSAVYYCARGTYYYGSALFDYWGQGTTLTVSS
VL: DAVMTQTPLSLPVSLGDQASISCRSSQSLENSNGNTYLNWYLQKPGQSPQLLIYRVSKRFSGVLDRFSGSGSGTDFTLKISRVEAEDLGVYFCLQLTHVPYTFGGGTKLEIKR
notes: also called Parental 8B8

target: T1, monomeric human CD19 antigen Fc(kih) fusion molecule (human, UniProt P0DOX5 223-449 = IgG part); test: SPR ProteOn XPR36, Fab from bacterial supernatant captured via anti-human Fab, monomeric CD19-Fc analyte
T1 construct: also called monomeric CD19-Fc; human CD19-Fc(kih)
Method: In order to further characterize the ELISA-positive clones, the off-rate was measured by surface plasmon resonance and compared with the parental humanized clone 8B8.
For this experiment, 7000 RU of polyclonal anti-human Fab antibody were immobilized on all 6 channels of a GLM chip by Amine coupling (NaAcetate pH4.5, 25 μl/min, 240 s) (vertical orientation). […] Injection of monomeric CD19-Fc: For one-shot kinetics measurements, injection direction was changed to horizontal orientation, three-fold dilution series of purified monomeric CD19-Fc (varying concentration ranges between 150 and 6 nM) were injected simultaneously at 50/min along separate channels 1-4, with association times of 180 s, and dissociation times of 300 s. […] Regeneration was performed by two pulses of 10 mM glycine pH 1.5 and 50 mM NaOH for 30 s at 90 ul/min (horizontal orientation). Dissociation rate constants (koff) were calculated using a simple one-to-one Langmuir binding model in ProteOn Manager v3.1 software by simultaneously fitting the sensorgrams.

Compared with B1, B2 is 69-fold lower in koff: 0.000301 s⁻¹ for the first, 4.37e-06 s⁻¹ for the second.

Compared with B3, B4 is 3.4-fold lower in koff: 0.000195 s⁻¹ for the first, 5.75e-05 s⁻¹ for the second.

Compared with B5, B6 is 8-fold lower in koff: 0.000258 s⁻¹ for the first, 3.24e-05 s⁻¹ for the second.

target: T1, monomeric human CD19 antigen Fc(kih) …; test: SPR ProteOn XPR36, IgG from HEK supernatant captured via anti-human Fab, monomeric CD19-Fc analyte, 1:1 Langmuir
Method: 7000 RU of polyclonal anti-human Fab antibody were immobilized on all 6 channels of a GLM chip by Amine coupling (NaAcetate pH4.5, 25 ul/min, 240 s) (vertical orientation). Each antibody-containing HEK supernatant was filtered, diluted with PBST (10 mM phosphate, 150 mM sodium chloride pH 7.4, 0.005% Tween 20) to a concentration of 10 ug/ml, and then injected at a for 360 s at 25 μl/minute to achieve immobilization levels between 500 and 800 response units (RU) in vertical orientation. Injection of monomeric CD19-Fc: For one-shot kinetics measurements, injection direction was changed to horizontal orientation, three-fold dilution series of purified monomeric CD19-Fc (varying concentration ranges between 150 and 6 nM) were injected simultaneously at 50 μl/min along separate channels 1-4, with association times of 180 s, and dissociation times of 300 s. […] Buffer (PBST) was injected along the sixth channel to provide an “in-line” blank for referencing. Regeneration was performed by two pulses of 10 mM glycine pH 1.5 and 50 mM NaOH for 30 s at 90 ul/min (vertical orientation). Association rate constants (kₒₙ) and dissociation rate constants (koff) were calculated using a simple one-to-one Langmuir binding model in ProteOn Manager v3.1 software by simultaneously fitting the association and dissociation sensorgrams. The equilibrium dissociation constant (KD) was calculated as the ratio koff/kₒₙ.

B7 and B8 are within 1.5-fold of each other in Kd: 0.951 nM for the first, 0.772 nM for the second.

Going from B9 to B10, the Kd falls from 0.747 nM to 0.44 nM (1.7-fold).

Compared with B11, B12 is 4.4-fold higher in Kd: 0.189 nM for the first, 0.831 nM for the second.

Going from B13 to B14, the Kd rises from 0.495 nM to 2.36 nM (4.8-fold).

First: B7
Second: B8
The koff of the first is 1.6-fold higher: 8.44e-05 s⁻¹ for the first, 5.26e-05 s⁻¹ for the second.

Compared with B9, B10 is 1.8-fold lower in koff: 5.57e-05 s⁻¹ for the first, 3.07e-05 s⁻¹ for the second.

Compared with B11, B12 is 3.3-fold higher in koff: 1.5e-05 s⁻¹ for the first, 5e-05 s⁻¹ for the second.

Going from B13 to B14, the koff rises from 3.14e-05 s⁻¹ to 0.000134 s⁻¹ (4.3-fold).

B7 and B8 are within 1.5-fold of each other in kon: 88800 M⁻¹ s⁻¹ for the first, 68100 M⁻¹ s⁻¹ for the second.

B9 and B10 are within 1.5-fold of each other in kon: 74500 M⁻¹ s⁻¹ for the first, 69800 M⁻¹ s⁻¹ for the second.

B11 and B12 are within 1.5-fold of each other in kon: 79100 M⁻¹ s⁻¹ for the first, 60200 M⁻¹ s⁻¹ for the second.

B13 and B14 are within 1.5-fold of each other in kon: 63400 M⁻¹ s⁻¹ for the first, 56600 M⁻¹ s⁻¹ for the second.
